According to patent publication US20240109974A1 (SHANDONG SIMCERE BIOPHARMACEUTICAL, published 2024):
Numbering of substitutions follows the chain as printed.

T1: human TNFR2 (Novoprotein, Cat #C830) (human, UniProt P20333 23-257, limits assumed)
T1 construct: construct not described; also called human TNFR2 protein
T1 sequence (looked up): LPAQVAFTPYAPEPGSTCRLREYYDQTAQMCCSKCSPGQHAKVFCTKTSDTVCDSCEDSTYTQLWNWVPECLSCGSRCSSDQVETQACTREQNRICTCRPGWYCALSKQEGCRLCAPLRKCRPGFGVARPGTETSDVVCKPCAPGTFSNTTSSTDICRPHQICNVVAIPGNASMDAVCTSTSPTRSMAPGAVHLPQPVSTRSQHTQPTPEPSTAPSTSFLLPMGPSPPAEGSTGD

T2: human TNFR2 on the surface of CHO-TNFR2 cells (human, UniProt P20333 23-461)
T2 construct: whole, on cells
T2 sequence (looked up): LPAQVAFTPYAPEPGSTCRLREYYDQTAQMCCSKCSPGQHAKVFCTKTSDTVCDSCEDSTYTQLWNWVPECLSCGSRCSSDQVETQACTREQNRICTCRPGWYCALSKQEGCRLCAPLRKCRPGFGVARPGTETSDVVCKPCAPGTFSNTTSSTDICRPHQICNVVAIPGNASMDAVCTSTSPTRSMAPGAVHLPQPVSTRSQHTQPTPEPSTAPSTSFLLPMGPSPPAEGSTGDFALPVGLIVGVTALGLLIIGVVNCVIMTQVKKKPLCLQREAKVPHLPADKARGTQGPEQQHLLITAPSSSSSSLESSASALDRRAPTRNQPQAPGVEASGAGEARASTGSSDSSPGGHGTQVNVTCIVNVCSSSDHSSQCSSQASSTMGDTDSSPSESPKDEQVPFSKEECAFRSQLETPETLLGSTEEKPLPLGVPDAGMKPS

B1: 001-Hu5 (antibody, V domains shown)
VH: EVQLVESGGGLVQPGGSLRLSCAASGFAFSTYDLSWVRQAPGKGLEWVAYINNGGISTYYSDTVKGRFTISRDNAKNTLYLQMNSLRAEDTAVYYCVRGPFYGSANYFDYWGQGTLVTVSS
VL: DIQMTQSPSSLSASVGDRVTITCRTSESIYSNLPWYQQKPGKSPKLLVYDATKLAEGVPSRFSGSGSGTDYTLTISSLQPEDFATYYCQHFWVTPWTFGQGTKVEIK
notes: Humanized form of #001; also called VH1 + VL4
B2: 001-Hu1 (antibody, V domains shown)
VH: B1 VH
VL: B1 VL with S43A, V48L
notes: Humanized form of #001; also called VH1 + VL1
B3: 001-Hu2 (antibody, V domains shown)
VH: B1 VH with T78S
VL: B1 VL with V48I, Y71F
notes: Humanized form of #001; also called VH2 + VL2
B4: 001-Hu3 (antibody, V domains shown)
VH: B1 VH
VL: B1 VL with S43A, V48I
notes: Humanized form of #001; also called VH1 + VL3
B5: 001-Hu4 (antibody, V domains shown)
VH: B1 VH with T78S
VL: B1 VL
notes: Humanized form of #001; also called VH2 + VL4
B6: 219-Hu3 (antibody, V domains shown)
VH: QVQLVQSGAEVKKPGSSVKVSCKASGYSFTNYWMNWVRQAPGQGLEWMGMIHPSDTETRLNQNFKDRVTITADKSTSTAYMELSSLRSEDTAVYYCARGEGLGAARSVSMDYWGQGTLVTVSS
VL: DIQMTQSPSSLSASVGDRVTITCRASQDISNYLNWYQQKPDGTVKLLIYYTAILHSGVPSRFSGSGSGTDYSLTISSLQPEDFATYFCQQGNTLPWTFGQGTKVEIK
notes: also called VH5 + VL5
B7: 219-Hu1 (antibody, V domains shown)
VH: B6 VH with S16A, G44R, A72R, K74T, T76A
VL: B6 VL
notes: also called VH3 + VL5
B8: 219-Hu2 (antibody, V domains shown)
VH: B6 VH with R67K, V68A
VL: B6 VL
notes: also called VH4 + VL5
B9: 219-Hu4 (antibody, V domains shown)
VH: B6 VH with R38K, M48I, R67K, V68A, I70L, A72V
VL: B6 VL
notes: also called VH6 + VL5
B10: 219-Hu5 (antibody, V domains shown)
VH: B6 VH with A72V
VL: B6 VL
notes: also called VH7 + VL5

molecular target: T1, human TNFR2 (Novoprotein, Cat #C830); experiment: competition ELISA, competitor human TNFα-Biotin; AUC against 001-WT
Procedure: (§1) 1 μg/ml human TNFR2 (Novoprotein, Cat #C830) was pre-coated with 100 μl/well […] in an ELISA plate. All the test TNFR2 antibodies were subjected to 2.5-fold gradient dilution from the highest concentration of 30 μg/ml; the diluted antibodies were mixed with 15 ng/ml human TNFα-Biotin (Acro Biosystem, Cat #TNA-H82E3) in equal volume, respectively; the resulting mixture was added to the ELISA plate at 100 μl/well, and incubated with shaking at room temperature for 2.0 hours. The plate was washed, and then a Streptavidin-HRP working solution (diluted at 1:10000) was added at 100 μl/well, and the mixture was incubated with shaking at room temperature for 40 minutes. The plate was washed again, and then the substrate TMB of HRP was added to develop colour. A stop solution was added to stop the reaction, and then a microplate reader (MD 13) was used to read the absorbance value. The inhibitory curve of an antibody was drawn with antibody concentration as the abscissa and corresponding OD value as the ordinate, and fitted with four parameters (GraphPad Prism9) to calculate the IC50 value. The smaller the IC50 value, the stronger the ability of an antibody to inhibit the binding of human TNFα to human TNFR2. The blocking effect of a humanized antibody was normalized to its corresponding human-murine chimeric antibody WT. The higher the percentage value, the better the inhibitory effect of the humanized antibody.

Binder	% Relative activity (WT antibody/test antibody) [%]
B1	98
B2	98
B3	97.1
B4	99.4
B5	101

molecular target: T1, human TNFR2 (Novoprotein, Cat #C830); experiment: competition ELISA, competitor human TNFα-Biotin; IC50 against 219-WT
Procedure: as §1

Binder	% Relative activity (WT antibody/test antibody) [%]
B6	111
B7	128
B8	120
B9	126
B10	136

molecular target: T2, human TNFR2 on the surface of CHO-TNFR2 …; experiment: flow cytometry on CHO-TNFR2 cells; AUC against 219-WT
Procedure: The transfected full-length plasmid of human TNFR2 was purchased from Sino Biological (Cat #HG10417-UT, NCBI Ref Seq: NM_001066.2). The experiment was conducted at a cell density within 80%. The cell medium was discarded; the cells were rinsed with PBS, and digested with 1 ml trypsin for 2 minutes; the digestion was stopped with a Ham's F12 complete medium containing 10% FBS, and then a cell suspension was made. The cell suspension was counted, and then an appropriate amount of cell suspension was centrifuged at 350×g; the supernatant was discarded; a corresponding volume of blocking solution (10% FBS+PBS) at a density of 1×10⁷ cells/ml was added to resuspend the cells, and the mixture was incubated at 4° C. for 30 minutes. After the incubation, the mixture was centrifuged at 350×g to remove the supernatant, and the cells were resuspended in a staining buffer (2% FBS+PBS) to a density of 2×10⁶ cells/ml, and spread onto a 96-well plate, with 50 μl of cell suspension added to each well for later use. The antibody was diluted with PBS for 10-fold gradient dilution from the highest concentration of 20 μg/m (twice the concentration); the diluted antibody was added to the well containing 50 μl of cell suspension, and placed on a microplate shaker for shaking at 500 rpm for 1 minute, so that the antibody was fully mixed with the cells; the mixture was incubated at 4° C. for 1 h. After the incubation, the cells were washed twice with the staining buffer, with 100 μl per well, and centrifuged at 350-g for 5 minutes, and the supernatant was discarded. The PE goat anti-Human IgG Fc antibody (ebioscience, Cat #12-4998-82) was diluted 250-fold with the staining buffer, with a volume of 100 μl per well added to the washed cell wells; the mixture was mixed evenly, and stained at 4° C. for 30 minutes. After the staining, similarly, the cells were washed twice with the staining buffer; finally, the cells were resuspended in 200 μl of staining buffer; signals were detected by a flow cytometer (Thermo Attune NxT). The stronger the signal, the stronger the binding ability of an antibody to TNFR2. The binding curve of an antibody was drawn with antibody concentration as the abscissa and corresponding mean fluorescence intensity (MFI) fold as the ordinate, and fitted with four parameters (GraphPad Prism9) to calculate the EC50 value.

Binder	% Relative activity (Test antibody/WT antibody) [%]
B6	96.4
B7	110
B8	103
B9	95.6
B10	93.3
